These results are taken from article PMC7138820, “Acetylation of histone H3K27 signals the transcriptional elongation for estrogen receptor alpha” (Communications Biology, 2020).

The data set deals with the molecule itself. Kind of data set: crystal structure; AFF4 900–1163, sitting-drop vapor diffusion at 16 °C, 2.2 M NaH2PO4, 0.4 M K2HPO4, 0.1 M MES pH 6.6; SAD phasing; 2.2 Å.

B1: AFF4 fragment encompassing residues 900–1163 (crystallised) (domain or fragment, human, UniProt Q9UHB7 900-1163, looked up)
chain: KPRRTKLVFDDRNYSADHYLQEAKKLKHNADALSDRFEKAVYYLDAVVSFIECGNALEKNAQESKSPFPMYSETVDLIKYTMKLKNYLAPDATAADKRLTVLCLRCESLLYLRLFKLKKENALKYSKTLTEHLKNSYNNSQAPSPGLGSKAVGMPSPVSPKLSPGNSGNYSSGASSASASGSSVTIPQKIHQMAASYVQVTSNFLYATEIWDQAEQLSKEQKEFFAELDKVMGPLIFNASIMTDLVRYTRQGLHWLRQDAKLIS
notes: A selenomethionyl derivative was made for SAD phasing; also called AFF4 C-terminal dimerization domain; AFF4 homodimerization domain; source: E. coli BL21(DE3) codon-plus RIL, purified (Ni-chelating resin, HiTrap SP, Superdex 75); not shown: His, N-terminal, cleaved; SUMO, N-terminal, cleaved
For the protein B1, the binding result is reported as “binds”.
